According to paper PMC2628593 (Molecular cell, 2008):

Molecular target: the molecule itself
Assay: SEC + other: dynamic light scattering

B1: Skap55 (Src-kinase-associated phosphoprotein of 55 kDa) (natural protein, UniProt Q86WV1 1-359, looked up)
chain: MQAAALPEEIRWLLEDAEEFLAEGLRNENLSAVARDHRDHILRGFQQIKARYYWDFQPQGGDIGQDSSDDNHSGTLGLSLTSDAPFLSDYQDEGMEDIVKGAQELDNVIKQGYLEKKSKDHSFFGSEWQKRWCVVSRGLFYYYANEKSKQPKGTFLIKGYGVRMAPHLRRDSKKESCFELTSQDRRSYEFTATSPAEARDWVDQISFLLKDLSSLTIPYEEDEEEEEKEETYDDIDGFDSPSCGSQCRPTILPGSVGIKEPTEEKEEEDIYEVLPDEEHDLEEDESGTRRKGVDYASYYQGLWDCHGDQPDELSFQRGDLIRILSKEYNMYGWWVGELNSLVGIVPKEYLTTAFEVEER
stoichiometry N: 2
